What all share (assay): cell-based or functional assay
The target in test [1] is FKBP.FRB.ΔC9 expressed from pBP1311-pSFG.FKBP.FRB.ΔC9.T2A-ΔCD19.
Test [2] addresses FRB.FKBP.ΔC9 expressed from pBP1310-pSFG.FRB.FKBP.ΔC9.T2A-ΔCD19.
The target in test [3] is ΔMyr.iMC (MyD88.CD40.Fv'.Fv) expressed from pBP0606-pSFG-k-ΔMyr.iMC.2A-ΔCD19 (human).
Test [4] concerns the target Her2-CAR-FRBl2 (1st generation Her2-CAR fused to two tandem FRBl domains).
The target of test [5] is CD19-CAR-FRBl2 (1st generation CD19-CAR fused to two tandem FRBl domains, co-expressed with iCaspase9 from iC9-CAR(19).FRBl2).

This passage reports rapamycin concentration (small molecule), rapamycin concentration and SRα-SEAP reporter activity of transfected 293 cells after overnight rapamycin (small-molecule heterodimerizer) results from patent US20240368574A1.

FRBL2.Caspase9 expressed from pBP0668-pSFG-FRBlx2.Caspase9.2A-Q.8stm.CD3zeta, sequence (chain, part): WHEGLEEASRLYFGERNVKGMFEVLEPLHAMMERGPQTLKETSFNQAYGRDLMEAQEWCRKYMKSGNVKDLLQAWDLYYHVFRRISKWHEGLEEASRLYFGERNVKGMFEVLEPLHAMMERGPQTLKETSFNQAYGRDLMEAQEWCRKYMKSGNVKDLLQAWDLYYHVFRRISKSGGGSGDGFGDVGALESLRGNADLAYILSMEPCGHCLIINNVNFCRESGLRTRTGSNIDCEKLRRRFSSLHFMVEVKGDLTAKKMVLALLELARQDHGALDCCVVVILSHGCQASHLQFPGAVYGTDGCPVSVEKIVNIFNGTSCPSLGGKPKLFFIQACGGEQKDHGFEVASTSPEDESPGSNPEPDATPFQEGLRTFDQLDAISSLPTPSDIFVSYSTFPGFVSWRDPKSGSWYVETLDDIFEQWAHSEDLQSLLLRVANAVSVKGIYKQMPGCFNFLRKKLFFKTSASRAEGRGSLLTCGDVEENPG
FKBP.FRB.ΔC9 expressed from pBP1311-pSFG.FKBP.FRB.ΔC9.T2A-ΔCD19, sequence (P55211 other isoform, or with tags, fused parts or gaps, stated change not applied): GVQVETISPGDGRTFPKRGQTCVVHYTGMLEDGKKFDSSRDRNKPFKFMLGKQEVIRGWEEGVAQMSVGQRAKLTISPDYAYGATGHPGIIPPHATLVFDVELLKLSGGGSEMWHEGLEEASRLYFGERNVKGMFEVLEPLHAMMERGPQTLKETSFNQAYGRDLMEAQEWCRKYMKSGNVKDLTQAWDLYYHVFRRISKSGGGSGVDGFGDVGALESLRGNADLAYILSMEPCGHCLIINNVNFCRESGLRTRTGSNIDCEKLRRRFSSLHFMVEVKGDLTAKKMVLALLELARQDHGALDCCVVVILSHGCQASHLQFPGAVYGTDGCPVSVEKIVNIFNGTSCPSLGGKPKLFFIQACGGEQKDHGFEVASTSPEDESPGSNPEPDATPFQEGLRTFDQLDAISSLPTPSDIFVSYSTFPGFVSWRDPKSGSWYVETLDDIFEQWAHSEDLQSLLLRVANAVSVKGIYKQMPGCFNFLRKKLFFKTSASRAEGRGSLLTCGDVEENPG
ΔMyr.iMC (MyD88.CD40.Fv'.Fv) expressed from pBP0606-pSFG-k-ΔMyr.iMC.2A-ΔCD19 (human), sequence (main, as listed by the source mutant): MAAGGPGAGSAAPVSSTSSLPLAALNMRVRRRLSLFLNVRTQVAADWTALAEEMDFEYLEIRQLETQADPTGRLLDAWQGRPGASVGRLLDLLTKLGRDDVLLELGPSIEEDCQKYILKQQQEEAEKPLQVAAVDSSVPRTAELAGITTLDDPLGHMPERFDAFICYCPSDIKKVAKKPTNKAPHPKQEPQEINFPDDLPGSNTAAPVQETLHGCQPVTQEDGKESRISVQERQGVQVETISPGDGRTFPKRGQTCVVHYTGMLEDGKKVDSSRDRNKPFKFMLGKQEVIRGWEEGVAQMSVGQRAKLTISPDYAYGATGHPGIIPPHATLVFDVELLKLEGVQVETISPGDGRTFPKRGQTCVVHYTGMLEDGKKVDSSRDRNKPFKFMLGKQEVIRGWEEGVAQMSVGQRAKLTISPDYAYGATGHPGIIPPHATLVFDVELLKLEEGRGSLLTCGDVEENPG
FRB.FKBP.ΔC9 expressed from pBP1310-pSFG.FRB.FKBP.ΔC9.T2A-ΔCD19, sequence (P55211 other isoform, or with tags, fused parts or gaps, stated change not applied): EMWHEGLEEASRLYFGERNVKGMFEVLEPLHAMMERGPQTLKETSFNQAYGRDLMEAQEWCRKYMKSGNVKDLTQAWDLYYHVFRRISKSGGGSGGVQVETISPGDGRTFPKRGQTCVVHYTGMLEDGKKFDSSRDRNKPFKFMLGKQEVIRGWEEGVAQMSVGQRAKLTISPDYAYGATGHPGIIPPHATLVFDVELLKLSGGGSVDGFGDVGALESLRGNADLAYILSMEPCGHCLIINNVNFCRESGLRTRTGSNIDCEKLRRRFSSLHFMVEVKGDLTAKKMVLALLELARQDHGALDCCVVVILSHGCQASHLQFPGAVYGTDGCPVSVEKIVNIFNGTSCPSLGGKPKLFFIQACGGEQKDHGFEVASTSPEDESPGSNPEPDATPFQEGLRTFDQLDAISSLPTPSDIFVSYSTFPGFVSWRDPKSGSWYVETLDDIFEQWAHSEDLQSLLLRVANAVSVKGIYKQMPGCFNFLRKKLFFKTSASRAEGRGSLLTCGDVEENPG

In turn, “FKBP.FRB.ΔC9 expressed from pBP1311-pSFG.FKBP.FRB.ΔC9.T2A-ΔCD19” had a rapamycin concentration (small molecule) at which the construct was still highly active, caspase 3/7 and SRα-SEAP assays in transfected 293 cells in test [1] of 100 pM.

“FRB.FKBP.ΔC9 expressed from pBP1310-pSFG.FRB.FKBP.ΔC9.T2A-ΔCD19” returned a rapamycin concentration (small molecule) at which the construct was still highly active, caspase 3/7 and SRα-SEAP assays in transfected 293 cells in test [2] of 100 pM.

Regarding “FRBL2.Caspase9 expressed from pBP0668-pSFG-FRBlx2.Caspase9.2A-Q.8stm.CD3zeta”, the rapamycin concentration at which doubly transduced (CD34+CD19+) primary T cells were eliminated, flow cytometry after 24 hours in test [3] is 2 nM.

iCaspase-9 as used in Example 17: the SRα-SEAP reporter activity of transfected 293 cells after overnight rapamycin (small-molecule heterodimerizer) in test [4] and in test [5] was 50 % decrease in each case.
